For three substances, IC50 results are on record in US20240294569A1, “MODULATORS OF SORTILIN ACTIVITY” (Insusense ApS, priority 2021, published 2024).

By IC50 is commonly meant the point on the concentration scale where inhibition reaches its midpoint. The low end stands for greater potency, the high end for weaker potency.

This assay deals with 6his-Sortilin (human) (UniProt Q99523). In words: SPA, displacement of [3H]-neurotensin from 6his-Sortilin. In general terms: Loss of bound radioactivity is the signal in a displacement assay; it reports binding, not function.
Consider “(2S)-5,5-Dimethyl-2-((3S)-3-methyl-2-((S)-2-((S)-pyrrolidine-2-carboxamido)propanamido)pentanamido)hexanoic acid (peptide)”, for which the IC50 came out at 70 nM.

Substance “(S)-2-((2S,3S)-2-((S)-3-(4-Hydroxyphenyl)-2-((R)-pyrrolidine-3-carboxamido)propanamido)-3-methylpentanamido)-5,5-dimethylhexanoic acid (peptide)” had an IC50 of 180 nM.

Turning to “(S)-2-((2S,3S)-2-((S)-3-(4-Hydroxyphenyl)-2-((S)-pyrrolidine-2-carboxamido)propanamido)-3-methylpentanamido)-5,5-dimethylhexanoic acid (peptide)”, the IC50 was determined as 90 nM.
